B1: SSAP_6: SEQ ID NO: 175 (protein)
chain: STALATLAGKLAERVGMDSVDPQELITTLRQTAFKGDASDAQFIALLIVANQYGLNPWTKEIYAFPDKQNGIVPVVGVDGWSRIINENQQFDGMDFEQDNESCTCRIYRKDRNHPICVTEWMDECRREPFKTREGREITGPWQSHPKRMLRHKAMIQCARLAFGFAGIYDKDEAERIVENTAYTAERQPERDITPVNDETMQEINTLLIALDKTWDDDLLPLCSQIFRRDIRASSELTQAEAVKALGFLKQKATEQKVAA
B2: SSAP_12: SEQ ID NO: 181 (protein)
chain: STALATLAGKLAERVGMDSVDPQELITTLRQTAFKGDASDAQFIALLIVANQYGLNPWTKEIYAFPDKQNGIVPVVGVDGWSRIINENQQFDGMDFEQDNESCTCRIYRKDRNHPICVTEWMDECRREPFKTREGREITGPWQSHPKRMLRHKAMIQCARLAFGFAGIYDKDEAERIVENTAYTAERQPERDITPVNDETMQEINTLLIALDKTWDDDLLPLCSQIFRRDIRASSELTQAEAVKALGFLKQKASEQKVAA
B3: SSAP_197: SEQ ID NO: 366; Arsenophonus sp. ENCA (protein, listed as Arsenophonus sp.)
chain: NTELETMNNVYDNLQSVIMQQGIAALLPAQVTPEQFTRTAATALIENVDLQNADKQSLVLALTRCAKDGLMPDGREAALVVRSTKVNKQFVKKAVYMPMVDGVIKRARQSGQVANIIAKVVYSQDEFEYVIDENGEHLTHRPAFVDGDDIVKVYAFAKLNSGELVVEVMSRAGVEKIRDTVQSAKYDSSPWVKWFDRMALKTVIHRLARRLPCASELFSLFEVYEDANSTEKTLRMAPASFKRLSIN
B4: SSAP_305: SEQ ID NO: 474 in b312 (Table 9 prints 424); Clostridium akagii (protein, listed as Clostridium akagii)
chain: ATSESLKNQLVNKETRPPKDPFKALVYSAGIKKRFEDMLDKQANGFITSLLNLKQDKLKSCDDFTVLGSALKAAALKLPIDPNLGFAWIIPFKNHGKLEAQFQIGYKGFIQMAQRSGQYKKLNVTEIYEGQLKSFNPLTEEIVLDLDNIKSDLRKINKRYLIVMRMNLLALHLRKISKG
B5: SSAP_193: SEQ ID NO: 362; Mesotoga sp. TolDC (protein, listed as Mesotoga sp.)
chain: KASEIASMVKKEDERRNHKPDPLAGIVKNLTSIKGEIANALPDAGITPERMIRIVVTLLRQNKSLAEAAMQNPASLLGAVMMAAQLGLDPTNGLDQCALVPRKGKVCFDIMYEGLVELGYRSDRMESIVARTVYEKDTFSLKYGLNEELVHIPYLDGDPGESKGYYMVGKLKGGGNIIVYMTKEQVHKIRDRYSVAYKAGLSGSRKDSPWFTSEDRMGEKTVVKAGFRWIPKSPIIRTALALDETAREASRLPMRN
B6: SSAP_16: SEQ ID NO: 185 (protein)
chain: MAKENYSDPNGKLLNSITTFEVNGEEVKLSGNIIRDYLVSGNAEVTDQEIIMFLQLCKYQKLNPFLNEAYLVKFKNTKGPDKPAQIIVSKEAFMKRAETHEQYDGFEAGVIVERGGEIIELEGAVSLASDKLLGGWAKVFRKDRNRPVSVRISEKEFNKRQSTWNTMPLTMMRKTAVVNAMREAFPDNLGAMYTEEEQGSLQNTETSVQQEIKQNANAEVLDIPSQQNEVPDFKEVREPEHVEMPPIYGEQQSTPPARPY
B7: SSAP_235: SEQ ID NO: 404; Streptomyces sp. adm13(2018) (protein, listed as Streptomyces sp.)
chain: SQIGNEIARQSHSPAAIIEQHKADLAVVAASHVRVDTFARLAVGVLRQNEKLAAAAANNPGSLMSALMTAARLGLEPGTEQFYLRPIKRKGQLEVQGIVGYQGIVELIYNAGAAQSVVVEVVRARDEFAWTPGALDEHRPPRWPGAMKQPHHKVDWFGDRGPLVGAYAYAVMQGGAISKVVVLNRDHIARAKAKSDGADTDYSPWRTDEEAMWLKTAARRLGKWVPTSAEKRTGVIERLDTPPAPLNEIDPDEDDEPIDGELVD
B8: SSAP_158: SEQ ID NO: 327; Nakamurella lactea (protein)
chain: ASNLAARAAEQVEQQTAPNRPPTIKEQIGRMESQFALAMPRGSEAAQLVRDAITAINTNPQLAECTPASVLGALMTCAQLGLRPGVLGHAWVLPFRSKGVMQAQLVIGYQGLVELAHRTGQVASLIAREVHERDHFDVDYGLADSLIHKPLLNGDRGPVTGYYAIVKFKGGGHSFIYASKADVEAHRDKFSKMKSFGPWVDNFDSMALKTVVRMLAKWMPKSTEFANAISADEGVRVDYSPTADVAQATEYVQPQLEEAPVEGVVVSEGGES
modifications: Nakamurella lacteal
notes: Nakamurella lactea
B9: SSAP_262: SEQ ID NO: 431; YqaK Schleiferilactobacillus shenzhenensis LY-73 (protein, listed as Schleiferilactobacillus shenzhenensis)
chain: SAVSESKDLQHVDQLSVLNSAMTAASLNLPINQNLGFFYLVPYKGIAQAQMGYKGYIQLAQRSGQYQRLNAIPVYADEFGSWNPLTEELDYTPHFEDRKASDKPVGYVGFFKLANGFEKTVYWSRKQIEAHRDRFSKSSKSSASPWNTDFDAMALKTVLRNLITKWGPMTTDIQRANDADEGDYKNDLSTDTSEPKDVTPGASLEQFLGETDQQQKPATKPAPKKKAEEAKPNDLKPDVTHDPNEHTEQTSLSDDDLPFD
B10: SSAP_4: SEQ ID NO: 166 (protein)
chain: MSTALATLAGKLAERVGMDSVDPQELITTLRQTAFKGDASDAQFIALLIVANQYGLNPWTKEIYAFPDKQNGIVPVVGVDGWSRIINENQQFDGMDFEQDNESCTCRIYRKDRNHPICVTEWMDECRREPFKTREGREITGPWQSHPKRMLRHKAMIQCARLAFGFAGIYDKDEAERIVENTAYTAERQPERDITPVNDETMQEINTLLIALDKTWDDDLLPLCSQIFRRDIRASSELTQAEAVKALGFLKQKAAEQKVAA
modifications: Lambda

Tests used:
Format in all cases: cell-based
[1] = test system: endogenous genome targets (ACTB, HSP90AA1); assay: Arrayed SSAP library screening, mKate knock-in assay (editing efficiency); conditions: average of HSP90 and ACTB, 3 days after transfection; for Editing Efficiency (Normalized, Average, two targets): fold over negative control (Flag_HA); for Editing Efficiency (Absolute, Average, two targets): percent of mKate knock-in
Protocol: Arrayed SSAP library screening on endogenous genome targets (ACTB. HSP90AA1) using mKate knock-in assay.
SSAP-encoding plasmids were purified and quantified.
(§1) Each SSAP encoding plasmid was tested in duplicate, including a negative control (same plasmid encoding Flag_HA which is not expected to promote gene editing). Transfections were in 96-well plates and transfection efficiency was estimated to be 50%.
(§2) Three days after transfection, mKate positive cells and cell viability were quantified across all replicates, along with positive (original RecT SSAP) and negative (Flag-HA control protein) controls. […] At the same time, the cell viability was measured by live cell counts via flow cytometry, to help quantify the fitness effect of SSAP on mammalian cells.
(§3) SSAP proteins are identified by Uniparc deposit number and SEQ ID NO. Alignment numbers correspond to SSAPs in FIGS. 58, 59, and 60.

mammalian cells = assay: Arrayed SSAP library screening, cell viability by live cell counts via flow cytometry
Protocol: as §1, §2, §3

gene editing with dCas9 = assay: Screen of 322 new SSAP proteins, gene editing activity with dCas9 (Table 5); parameters: dCas9 with SSAP activity: scale not given here
Method in brief: (§4)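 First, 322 new single-strand annealing proteins are identified from sequences. Next they are synthesized. Finally each is assayed for editing in combination with Cas9 and, separately, dCas9.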

gene editing with Cas9 = assay: Screen of 322 new SSAP proteins, gene editing activity with Cas9 (Table 5); parameters: Cas9 with SSAP activity: scale not given here
Method in brief: as §4

[2] = test system: gene editing with Cas9 and dCas9; assay: Screen of 322 new SSAP proteins, activity across all experiments (Cas9 and dCas9, Table 5); parameters: scale not given here
Method in brief: as §4

| Molecule | Editing Efficiency (Normalized, Average, two targets) [1] | Editing Efficiency (Absolute, Average, two targets) [1] | Cell Viability (Average, two targets) (mammalian cells) | dCas9 with SSAP activity (gene editing with dCas9) | dCas9 with SSAP activity (normalized) (gene editing with dCas9) | Cas9 with SSAP activity (gene editing with Cas9) | Activity across all experiments [2] | Cas9 with SSAP activity (normalized) (gene editing with Cas9) |
| --- | --- | --- | --- | --- | --- | --- | --- | --- |
| B1 | 4.879 | 12.075 | 1.282 | −5.703 | −1.399 | −8.056 | −6.879 |  |
| B2 | 4.263 | 10.5525 | 1.291 | −7.567 | −1.196 | −7.814 | −7.690 | −1.324 |
| B3 | 5.661 | 14.025 | 1.021 | −6.622 | −1.370 | −2.785 | −4.703 | −1.134 |
| B4 | 4.612 | 11.425 | 0.5578 | −6.032 | −1.721 | 0.745 | −2.644 | 0.408 |
| B5 | 5.034 | 12.465 | 1.147 | −5.951 | −1.083 | −0.442 | −3.196 | −0.140 |
| B6 | 8.461 | 20.95 | 1.146 | −5.666 | −1.047 | −0.858 | −3.262 | −0.452 |
| B7 | 4.251 | 10.53 | 0.8847 | −5.457 | −1.152 | −5.016 | −5.237 | −0.970 |
| B8 | 5.44 | 13.45 | 0.9945 | −6.910 | −1.386 | −1.229 | −4.070 | −0.520 |
| B9 | 3.676 | 9.1025 | 1.122 | −6.590 | −1.417 | −2.947 | −4.769 | −0.511 |
| B10 | 5.57 | 13.8 | 1.192 | −6.997 | −1.447 | −2.882 | −4.940 | −0.474 |

— US20250034594A1, “RNA-GUIDED GENOME RECOMBINEERING AT KILOBASE SCALE” (THE BOARD OF TRUSTEES OF THE LELAND STANFORD JUNIOR …, priority 2021, published 2025)
